Source: US20090286719A1

Legend:
[1] = molecular target: a site on the cancer and normal cell surface (human); assay: whole-cell binding assay on UISO-Mel-2 cells, 125I azurin with or without unlabeled competitor, Scatchard analysis
[2] = molecular target: a site on the cancer and normal cell surface (human); assay: whole-cell binding assay on UISO-Mel-2 cells with 125I azurin, Scatchard analysis

Substance | Bmax [1] | Bmax [2] | Kd [2]
p28, Leu50-Asp77 of Pseudomonas aeruginosa azurin (peptide) | 3 | – | –
azurin from Pseudomonas aeruginosa (wt-azurin) | – | 0.48 pm | 10 nM
p18, Leu50-Gly67 of Pseudomonas aeruginosa azurin (peptide) | 0.51 pm | – | –
